Substitutions are numbered along the chain they refer to. Numbers in names are those of the source.
B1: pT37 4E-BP2 (protein)
chain: MSSSAGSGHQPSQSRAIPTRTVAISDAAQLPHDYCTTPGGTLFSTAPGGTRIIYDRKFLLDRRNAPMAQAPPCHLPNIPGVTAPGTLIEDSKVEVNNLNNLNNHDRKHAVGDDAQFEMDI
modifications: phospho-Thr37
B2: pT37 pT46 (Two-phospho) 4E-BP2 (protein)
chain: B1 chain with A46T
modifications: phospho-Thr37, phospho-Thr46
B3: pT46 4E-BP2 (protein)
chain: B1 chain with T37A, A46T
modifications: phospho-Thr46
B4: G39V/G48V Five-phospho 4E-BP2 (protein)
chain: B1 chain with G39V, A46T, G48V, A65S, A70T, A83S
modifications: phospho-Thr37, phospho-Thr46, phospho-Ser65, phospho-Thr70, phospho-Ser83 (legend prints pT36, taken as a typo for pT37)
B5: Non-phospho 4E-BP2 (protein)
chain: B1 chain with A46T, A65S, A70T, A83S
B6: pS65 pT70 pS83 (T37A/T46A) 4E-BP2 (protein)
chain: B1 chain with T37A, A65S, A70T, A83S
modifications: phospho-Ser65, phospho-Thr70, phospho-Ser83

biological target: eukaryotic translation initiation factor 4E (eIF4E) (UniProt P06730 1-217); assay: ITC
Sequence (P06730 whole entry): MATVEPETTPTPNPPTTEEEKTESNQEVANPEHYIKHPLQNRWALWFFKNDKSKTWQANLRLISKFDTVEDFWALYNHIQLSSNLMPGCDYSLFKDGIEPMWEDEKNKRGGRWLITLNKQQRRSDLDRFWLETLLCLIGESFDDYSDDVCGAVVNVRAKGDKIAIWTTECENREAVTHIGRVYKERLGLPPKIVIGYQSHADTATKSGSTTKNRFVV

Row | Kd [nM] | Binder
1 | 7.2 | B1
2 | 267 | B2
3 | 2.4 | B3
4 | 36.1 | B4
5 | 3.2 | B5
6 | 11.3 | B6
